This note sets out measurements from PMC7720491.

Experiment [1] addresses recombinant F. hepatica cathepsin L1 (FhCL1), activated mature enzyme (Fasciola hepatica).
Experiment [2] deals with human cathepsin L (HsCL) (human). The experiment in a line: enzyme inhibition kinetics (Ki, Morrison equation).
Experiment [3] has as its target recombinant F. hepatica cathepsin L1 (FhCL1), activated mature enzyme (Fasciola hepatica). The experiment in a line: enzyme inhibition kinetics (Ki, Morrison equation).
Experiment [4] addresses recombinant F. hepatica cathepsin L3 (FhCL3), activated mature enzyme (Fasciola hepatica). The experiment in a line: enzyme inhibition kinetics (Ki, Morrison equation).
Experiment [5] deals with recombinant F. hepatica cathepsin L2 (FhCL2), activated mature enzyme (Fasciola hepatica). The experiment in a line: enzyme inhibition kinetics (Ki, Morrison equation).
Experiment [6] deals with human cathepsin K (HsCK) (human) (UniProt P43235). The experiment in a line: enzyme inhibition kinetics (Ki, Morrison equation).
human cathepsin K (HsCK) (human), sequence (P43235 115-329): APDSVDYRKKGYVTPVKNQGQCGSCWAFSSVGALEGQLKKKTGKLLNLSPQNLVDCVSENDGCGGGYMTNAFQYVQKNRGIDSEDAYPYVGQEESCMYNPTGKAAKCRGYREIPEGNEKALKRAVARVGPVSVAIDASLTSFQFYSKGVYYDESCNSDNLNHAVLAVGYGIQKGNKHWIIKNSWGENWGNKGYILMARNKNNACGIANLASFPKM
Experiment [7] deals with recombinant F. hepatica cathepsin L1 (FhCL1), activated mature enzyme (Fasciola hepatica). The source holds these as a separate data set.
Experiment [8] addresses recombinant F. hepatica cathepsin L3 (FhCL3), activated mature enzyme (Fasciola hepatica).
Experiment [9] has the same target. The source holds these as a separate data set.
Experiment [10] has as its target recombinant F. hepatica cathepsin L2 (FhCL2), activated mature enzyme (Fasciola hepatica).

As for “ppFhCL3_Tyr^46Lys^47/Ala^46Ala^47 (domain or fragment)”, in [1], the percent inhibition of recombinant peptidase activity by 10 nM propeptide, pH 7.0 came out at 85%. Besides, the Ki in [2] was greater than 10000 nM; in experiment [3] it was 1.26 nM; in experiment [4], greater than 10000 nM; in experiment [5] it was greater than 10000 nM; in experiment [6] it was greater than 10000 nM.
With “33-mer synthetic peptide derived from the FhCL3 propeptide (p45 to p77)”, the figures for the percent reduction of peptidase activity by 500 nM 33-mer peptide, pH 7.0 in experiment [7] and in [8] were 30% and 50%, respectively.
“ppFhCL3_Glu^68/Arg^68 (domain or fragment)”: the percent inhibition of recombinant peptidase activity by 10 nM propeptide, pH 7.0 in experiment [1] is 95%; in [9], less than 20%; in experiment [10], less than 20%. Besides, the Ki in experiment [2] is 6.04 nM; in experiment [3] it was 0.3 nM; in experiment [4] it was 0.002 nM; in experiment [5], 0.02 nM; in experiment [6] it was 1.4 nM.
Turning to “ppFhCL3_Leu^66/Gly^66 (domain or fragment)”, the percent inhibition of recombinant peptidase activity by 10 nM propeptide, pH 7.0 in [1] stood at 90%. The Ki in [2] is greater than 10000 nM; in [3], 0.05 nM; in experiment [4], 8 nM; in [5] it was greater than 10000 nM; in experiment [6], greater than 10000 nM.
Turning to “recombinant FhCL3 propeptide (ppFhCL3), wild type (from UniProt A0A879R2T5 1-326) (domain or fragment)”, the values for the percent inhibition of recombinant peptidase activity by 10 nM propeptide, pH 7.0 in experiment [1], in [9] and in experiment [10] were 98%, 100% and 97%, respectively. Moreover, the Ki in experiment [2] was 26.6 nM; in [3], 0.04 nM; in experiment [4] it was less than 0.002 nM; in [5] it was 0.004 nM; in experiment [6], 2 nM.
